Results on one molecule are retold here after article PMC4506123, “Identification of an Isothiocyanate on the HypEF Complex Suggests a Route for Efficient Cyanyl–Group Channeling during [NiFe]–Hydrogenase Cofactor Generation” (PLoS ONE, 2015).

The assay deals with T1, HypF (E. coli, UniProt P30131 1-750).
T1 construct: HypF, carbamoyltransferase of [NiFe]-hydrogenase maturation of E. coli; 82 kDa; also called His-tagged HypF; auxiliary protein HypF; source: isolated from E. coli, purified as described previously [21] with 10 mM magnesium acetate in all buffers
T1 sequence (looked up): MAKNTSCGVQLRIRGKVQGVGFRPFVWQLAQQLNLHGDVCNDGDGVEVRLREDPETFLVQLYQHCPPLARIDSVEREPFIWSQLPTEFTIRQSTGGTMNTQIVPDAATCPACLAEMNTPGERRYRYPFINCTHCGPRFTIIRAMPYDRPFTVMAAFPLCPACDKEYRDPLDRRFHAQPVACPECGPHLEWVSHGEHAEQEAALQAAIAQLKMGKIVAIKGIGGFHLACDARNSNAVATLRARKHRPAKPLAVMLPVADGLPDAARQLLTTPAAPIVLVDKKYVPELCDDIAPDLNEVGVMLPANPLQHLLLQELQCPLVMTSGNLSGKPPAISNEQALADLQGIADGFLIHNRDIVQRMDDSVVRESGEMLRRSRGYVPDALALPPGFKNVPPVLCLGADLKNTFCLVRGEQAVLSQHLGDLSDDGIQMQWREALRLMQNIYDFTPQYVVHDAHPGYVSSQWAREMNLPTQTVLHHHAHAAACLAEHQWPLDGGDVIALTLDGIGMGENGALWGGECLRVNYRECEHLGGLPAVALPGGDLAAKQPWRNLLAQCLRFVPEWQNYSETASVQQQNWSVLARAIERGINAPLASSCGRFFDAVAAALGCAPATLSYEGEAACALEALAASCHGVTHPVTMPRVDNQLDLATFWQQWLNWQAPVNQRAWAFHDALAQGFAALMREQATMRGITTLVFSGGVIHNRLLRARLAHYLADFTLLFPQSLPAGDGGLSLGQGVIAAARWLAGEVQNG
As to the kind of experiment: native gel or EMSA; native PAGE as described earlier [35,36]; isolated HypE and HypF; no further conditions told for this experiment. Particulars: both partners purified.

B1: HypE (natural protein, E. coli, UniProt P24193 1-336, looked up)
chain: MNNIQLAHGSGGQAMQQLINSLFMEAFANPWLAEQEDQARLDLAQLVAEGDRLAFSTDSYVIDPLFFPGGNIGKLAICGTANDVAVSGAIPRYLSCGFILEEGLPMETLKAVVTSMAETARAAGIAIVTGDTKVVQRGAVDKLFINTAGMGAIPANIHWGAQTLTAGDVLLVSGTLGDHGATILNLREQLGLDGELVSDCAVLTPLIQTLRDIPGVKALRDATRGGVNAVVHEFAAACGCGIELSEAALPVKPAVRGVCELLGLDALNFANEGKLVIAVERNAAEQVLAALHSHPLGKDAALIGEVVERKGVRLAGLYGVKRTLDLPHAEPLPRIC
notes: HypE, [NiFe]-hydrogenase maturation protein of E. coli; 36 kDa monomer; C-terminal cysteine C336 in E. coli nomenclature; also called His-tagged HypE; auxiliary protein HypE; source: isolated from E. coli, purified as described previously [21] with 10 mM magnesium acetate in all buffers
B1: the binding result is given as “binds”.
